24 sequences from the Immune Epitope Database (IEDB) can be followed below.

The target in assay [1] is HLA-A*31:01. Briefly: IEDB peptide-MHC binding, purified MHC/competitive/fluorescence; filed as Kd, often an IC50 or EC50 that approximates it; ≥ and ≤ were set here for values at or beyond the usual limits of such assays.
The target in assay [2] is HLA-A*03:01. The assay is described as follows: IEDB peptide-MHC binding, purified MHC/direct/fluorescence; filed as Kd, often an IC50 or EC50 that approximates it; ≥ and ≤ were set here for values at or beyond the usual limits of such assays.
Assay [3] addresses HLA-A*11:01. The description is as above.
Assay [4] deals with HLA-A*24:02. The assay is described as follows: IEDB peptide-MHC binding, purified MHC/competitive/fluorescence; ≥ and ≤ were set here for values at or beyond the usual limits of such assays. To be noted: source organism: Zaire ebolavirus.
The target in assay [5] is HLA-B*15:01. The description is as above. The following applies: source organism: Zaire ebolavirus.
For assay [6], the target named is HLA-A*02:01. The description is as above. The following applies: source organism: Zaire ebolavirus.
Assay [7] deals with HLA-A*03:01. Described as above.
Assay [8] deals with HLA-A*11:01. The description is as above.
The target in assay [9] is HLA-A*02:19. The assay is described as follows: IEDB peptide-MHC binding, purified MHC/competitive/fluorescence; filed as Kd, often an IC50 or EC50 that approximates it; ≥ and ≤ were set here for values at or beyond the usual limits of such assays. The following applies: source organism: Human immunodeficiency virus 1.
The target of assay [10] is HLA-A*69:01. Described as above. The following applies: source organism: Human immunodeficiency virus 1.
Assay [11] deals with HLA-A*02:11. Described as above.
For assay [12], the target named is HLA-A*02:01. The assay is described as above.
Assay [13] has as its target HLA-C*05:01. The assay is described as follows: IEDB peptide-MHC binding, purified MHC/direct/fluorescence; filed as Kd, often an IC50 or EC50 that approximates it; ≥ and ≤ were set here for values at or beyond the usual limits of such assays.
Assay [14] has as its target HLA-A*69:01. The assay is described as above.
Assay [15] concerns the target HLA-B*45:06. The assay is described as follows: IEDB peptide-MHC binding, purified MHC/competitive/fluorescence; filed as Kd, often an IC50 or EC50 that approximates it; ≥ and ≤ were set here for values at or beyond the usual limits of such assays. The following applies: source organism: Yersinia pestis Nepal516.
In assay [16] the target is HLA-B*15:42. The assay is described as above. The following applies: source organism: Yersinia pestis Nepal516.
In assay [17] the target is HLA-B*83:01. The assay is described as above. The following applies: source organism: Yersinia pestis Nepal516.
Assay [18] addresses HLA-B*57:01. The assay is described as follows: IEDB peptide-MHC binding, purified MHC/direct/fluorescence; filed as Kd, often an IC50 or EC50 that approximates it; ≥ and ≤ were set here for values at or beyond the usual limits of such assays.
Assay [19] addresses HLA-B*15:17. Described as above. The following applies: source organism: West Nile virus.
Assay [20] has as its target HLA-B*58:01. Described as above.
The target of assay [21] is HLA-B*15:01. The assay is described as follows: IEDB peptide-MHC binding, purified MHC/competitive/fluorescence; filed as Kd, often an IC50 or EC50 that approximates it; ≥ and ≤ were set here for values at or beyond the usual limits of such assays. To be noted: source organism: Escherichia coli 536.
In assay [22] the target is HLA-A*03:01. The description is as above.
In assay [23] the target is HLA-B*15:01. The assay is described as follows: IEDB peptide-MHC binding, purified MHC/competitive/radioactivity; filed as Kd, often an IC50 or EC50 that approximates it; ≥ and ≤ were set here for values at or beyond the usual limits of such assays. The following applies: source organism: Dengue virus 4 Philippines/H241/1956.
In assay [24] the target is HLA-A*30:02. The assay is described as above. To be noted: source organism: Dengue virus 4 Philippines/H241/1956.
Assay [25] has as its target HLA-B*48:01. The assay is described as follows: IEDB peptide-MHC binding, purified MHC/direct/fluorescence; filed as Kd, often an IC50 or EC50 that approximates it; ≥ and ≤ were set here for values at or beyond the usual limits of such assays. The following applies: source organism: Mycobacterium tuberculosis variant bovis.
Assay [26] concerns the target HLA-B*18:01. Described as above. The following applies: source organism: Mycobacterium tuberculosis variant bovis.
Assay [27] concerns the target HLA-A*01:01. The assay is described as above.
Assay [28] has as its target HLA-B*27:05. The assay is described as above. The following applies: source organism: Mycobacterium tuberculosis variant bovis.
The target of assay [29] is HLA-A*31:01. The assay is described as above. To be noted: source organism: Mycobacterium tuberculosis variant bovis.
The target of assay [30] is HLA-B*15:01. The description is as above. To be noted: source organism: Mycobacterium tuberculosis variant bovis.
In assay [31] the target is HLA-B*46:01. The description is as above. The following applies: source organism: Mycobacterium tuberculosis variant bovis.
The target of assay [32] is HLA-B*08:01. The assay is described as above. The following applies: source organism: Mycobacterium tuberculosis variant bovis.
Assay [33] has as its target HLA-A*29:02. Described as above.
Assay [34] deals with HLA-B*40:01. The assay is described as above. The following applies: source organism: Mycobacterium tuberculosis variant bovis.
Setting [35] is: source organism: Mycobacterium tuberculosis.
Where [36] appears, read: source organism: Zaire ebolavirus.
Setting [37] is: source organism: Vibrio vulnificus YJ016.
The mark [38] stands for this setting: source organism: Human immunodeficiency virus 1.
Setting [39] is: source organism: West Nile virus.
[40] abbreviates: source organism: Yersinia pestis.
The mark [41] stands for this setting: source organism: Brucella abortus bv. 2 str. 86/8/59.
Where [42] appears, read: source organism: Eastern equine encephalitis virus (STRAIN VA33[TEN BROECK]).
Setting [43] is: source organism: Vaccinia virus WR.
Where [44] appears, read: source organism: Escherichia coli 536.
The mark [45] stands for this setting: source organism: dengue virus type 4.
[46] abbreviates: source organism: Mycobacterium tuberculosis variant bovis.
The mark [47] stands for this setting: source organism: Sudan ebolavirus.
Setting [48] is: source organism: Vaccinia virus Copenhagen.

On to AAMVLLLRK, for which the values for the Kd in assay [1] (source organism: Mycobacterium tuberculosis variant bovis BCG str. Pasteur 1173P2), in assay [2] (setting [35]) and in assay [3] (setting [35]) were at least 20000 nM, 79.5 nM and at most 1 nM, respectively.

Turning to AIGLAWIPY, the half-inhibitory concentration (IC50) – broadly, the midpoint of a concentration-inhibition curve – is at least 166000 nM in assay [4]; 1460 nM in assay [5]; at least 245000 nM in [6]; 1540 nM in assay [7] (setting [36]); 61400 nM in assay [8] (setting [36]).

For ASLPKTSGH, the half-inhibitory concentration (IC50) in [5] is at least 143000 nM; in [7] (setting [36]), 20100 nM; in assay [8] (setting [36]) it was 2610 nM.

In the case of ATGFPFFDR, the results for the Kd in [1] (setting [37]), in assay [2] (setting [37]) and in assay [3] (setting [37]) were 2.35 nM, at least 20000 nM and 1.1 nM, respectively.

Take ATTAAGPPK: the IC50 was at least 354000 nM in [6], 6300 nM in [7] (setting [36]) and 762 nM in [8] (setting [36]).

Consider ELADQLIHL, for which the Kd (in general, the equilibrium constant for the complex coming apart) was 6.75 nM in [9], at most 1 nM in assay [10], 26.2 nM in assay [11] (setting [38]) and 1160 nM in assay [12] (setting [38]).

Regarding EMYRHILRS, the values for the IC50 in [6] and in [7] (setting [36]) were 8880 nM and at least 96900 nM, respectively.

In the case of FLAVGGVLL, the Kd in [13] (setting [39]) is 4180 nM; in [14] (setting [39]) it was at least 20000 nM.

Consider FPSVFINPV, for which the Kd in assay [13] (source organism: Myxoma virus) is at least 20000 nM.

For GSYFSGFYK, the Kd in assay [15] is at least 5000 nM; in assay [1] (source organism: Yersinia pestis Nepal516), at most 1 nM; in assay [16], at least 5000 nM; in assay [17], at least 5000 nM; in [2] (setting [40]) it was 13.7 nM; in assay [3] (setting [40]), at most 1 nM.

On to ILDDPEIYP, for which the Kd in assay [11] (setting [41]) is 677 nM; in [12] (setting [41]) it was 12000 nM.

Take ITYGSVSWR: the Kd in [1] (source organism: Eastern equine encephalitis virus) is 1.5 nM; in assay [2] (setting [42]), 61.2 nM; in assay [3] (setting [42]) it was 6.8 nM.

ITYTDVLRY: the dissociation constant Kd in [1] (setting [39]) is at least 20000 nM; in assay [18] (setting [39]), 105 nM; in [19], at most 1 nM; in assay [2] (setting [39]), 144 nM; in assay [3] (setting [39]) it was 14.8 nM; in [20] (setting [39]), 38 nM.

On to KHVGLITCK, for which the 50% inhibitory concentration (IC50) in [7] (setting [43]) was 47200 nM; in assay [8] (setting [43]) it was at least 80000 nM.

On to KLIAVPHTK, for which the Kd in assay [1] (setting [44]) was 900 nM; in assay [21], at least 20000 nM; in [22] (setting [44]), 135 nM.

KVASAGISY: the Kd is 1.85 nM in assay [23], 40.4 nM in assay [24], at least 20000 nM in [1] (setting [45]) and 52.1 nM in assay [3] (setting [45]).

MLYKSSKSR: the equilibrium dissociation constant (Kd) in assay [1] (source organism: Kurkino virus) turned out to be 51.7 nM; in assay [22] (source organism: Kurkino virus) it was 3.2 nM.

As to PMQQLTQPL, the dissociation constant (Kd) in assay [25], in assay [18] (setting [46]), in assay [26], in assay [27] (setting [46]), in [28] and in [29] was at least 20000 nM each time. The Kd in [30], in [14] (setting [46]), in assay [31], in assay [32], in assay [2] (setting [46]) and in assay [3] (setting [46]) was at least 20000 nM throughout. Also, the Kd in [20] (setting [46]), in assay [33] (setting [46]) and in assay [34] was at least 20000 nM each time.

In the case of PTAIYTLEY, the figures for the dissociation constant Kd in [27] (setting [35]) and in [33] (source organism: Mycobacterium tuberculosis str. Haarlem) were 9.2 nM and 6 nM, respectively.

QLPRDKFRK: the IC50 in assay [7] (setting [47]) is 3380 nM; in [8] (setting [47]) it was 723 nM.

As for RVIPPSLLR, the Kd was 13.5 nM in assay [1] (source organism: Mycobacterium tuberculosis C) and 1750 nM in assay [2] (source organism: Mycobacterium leprae).

Turning to TKLYKNKSK, the IC50 is 44300 nM in assay [7] (setting [48]) and 57500 nM in [8] (setting [48]).

Turning to VIAFLILAK, the IC50 was 1690 nM in assay [7] (setting [47]) and 564 nM in [8] (setting [47]).

For VQQGIVRQR, the half-inhibitory concentration (IC50) in assay [7] (setting [36]) is at least 160000 nM; in [8] (setting [36]), 8370 nM.
